{
  "source": "paper doi:10.1101/716332",
  "target": "PA28γ (endogenous, U2OS cells) (human (endogenous in U2OS)) (UniProt P61289)",
  "sequence (P61289 whole entry)": "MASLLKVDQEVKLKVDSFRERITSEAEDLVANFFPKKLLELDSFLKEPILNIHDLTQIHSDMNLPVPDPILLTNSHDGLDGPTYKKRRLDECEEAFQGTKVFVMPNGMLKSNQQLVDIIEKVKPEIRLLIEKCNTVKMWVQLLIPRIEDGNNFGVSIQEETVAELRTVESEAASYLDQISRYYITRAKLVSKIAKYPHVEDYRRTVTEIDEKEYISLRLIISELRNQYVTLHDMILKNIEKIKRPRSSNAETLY",
  "assay": "proximity ligation",
  "data": [
    {"substance": "20S proteasome (endogenous, U2OS cells), detected by its α4 subunit (from UniProt O14818 1-248) (complex)", "values": [
      {"measurement": "PLA dots per nucleus (PLA dots per nucleus)", "value": "< 60"}
    ]}
  ]
}
